Experimental findings from patent US20050226848, “Transcriptional regulation of gene expression by small double-stranded modulatory RNA” (published 2005) are described below.

This data set concerns the target Bovine serum albumin (Bos taurus, UniProt P02769 P02769:25-607). As to the kind of experiment: EMSA; BSA control. The protocol:
To compare the affinity between NRSE dsDNA and NRSE dsRNA to NRSF/REST protein, an electrophoretic mobility shift assay (EMSA) was performed. NRSF/REST with cMyc-tag was expressed in 293T cells and immunoprecipitated with anti-cMyc antiboby. After purification, the protein was incubated with either NRSE dsDNAs or dsRNAs. A range of NRSF/REST protein concentrations was tested; the highest one tested produced a shift in dsDNA migration, whereas a 16-fold lower concentration of NRSF/REST protein was enough to produce a shift in dsRNA (FIG. 6C). […] Binding of NRSF/REST to the sequence of the MCS control dsRNAs or dsDNAs was not observed. […] This highly specific binding between NRSE dsRNA and NRSF/REST protein may contribute to a functional switch of the NRSF/REST machinery from transcriptional repressor to activator.
A general note: A gel shift assay detects complexes by their altered migration in electrophoresis.

Chain of Bovine serum albumin (P02769 25-607, one chain of several): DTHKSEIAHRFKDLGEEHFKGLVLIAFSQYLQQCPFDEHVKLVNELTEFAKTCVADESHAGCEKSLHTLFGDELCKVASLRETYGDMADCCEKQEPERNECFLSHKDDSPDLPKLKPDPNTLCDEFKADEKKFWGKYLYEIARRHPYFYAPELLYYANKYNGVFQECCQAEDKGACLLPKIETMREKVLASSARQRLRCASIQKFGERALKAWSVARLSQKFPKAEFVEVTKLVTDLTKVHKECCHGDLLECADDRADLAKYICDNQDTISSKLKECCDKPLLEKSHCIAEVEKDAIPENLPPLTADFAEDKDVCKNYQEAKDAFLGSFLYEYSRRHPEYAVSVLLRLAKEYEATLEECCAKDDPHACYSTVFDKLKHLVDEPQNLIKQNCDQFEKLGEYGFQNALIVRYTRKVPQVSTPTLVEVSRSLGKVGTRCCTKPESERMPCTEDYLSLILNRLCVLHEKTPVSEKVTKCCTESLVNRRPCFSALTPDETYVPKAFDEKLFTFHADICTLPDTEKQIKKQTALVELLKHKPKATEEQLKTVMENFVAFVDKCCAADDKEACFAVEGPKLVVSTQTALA

B1: NRSE dsRNA (dsRNA)
RNA 1: UUCAGCACCACGGACAGCGCC
RNA 2: GGCGCUGUCCGUGGUGCUGAA
For B1, the binding result is on record as “no binding”.

B2: NRSE/RE1 dsDNA (dsDNA)
DNA 1: TTCAGCACCACGGACAGCGCC
DNA 2: GGCGCTGTCCGTGGTGCTGAA
As to B2, the binding result was “no binding”.
